The source of these data is patent publication US20100297136A1 (NOTTINGHAM TRENT UNIVERSITY, published 2010).

The first test deals with T1, HLA-A2.1 MHC class I on the surface of T2 cells.
T1 construct: whole, on cells; MHC class I molecule stabilised on T2 cells by added peptide
Description: T2 MHC class I stabilisation, flow cytometry with anti HLA-A2.1 mAb, peptide at 100 ug (printed '100 lg'), n = 3. As to the method: (§1) 2. CAPABILITY OF T21-DERIVED PEPTIDES TO STABILISE MHC CLASS I ON THE SURFACE OF T2 CELLS. Each of the peptides were then screened in a standard T2 assay to determine their ability to stabilise MHC class I molecules on the surface of T2 cells. In brief, T2 cells were cultured routinely in suspension and when required, resuspended to 4×10⁶ cells/ml. 40 μl of the cell suspension was added to round bottom 96 well plates to give a final cell number of 1.6×10⁵ cells/well. Test peptide was added to the wells in triplicate at concentrations of 100, 10, 1 μg. As a control, T2 cells were also treated with equivalent concentrations of DMSO. Following overnight incubation, cells were harvested into FACS tubes, washed and labelled with anti HLA-A2.1 monoclonal antibody (primary antibody) and FITC conjugated goat IgG F(ab′)₂ anti mouse Ig (secondary antibody). Cells were then analysed using a FACScan spectrofluorometer. (See Table 5 and FIG. 6).
(§2) TABLE 5 Mean T2 binding ratios calculated for the four T21-derived peptides. Mean fluorescence (T2 binding ratio) was calculated by dividing the fluorescence observed for the test peptide by the fluorescence observed for the control (DMSO).
Consider YLIHLLQEL (Synthetic peptide) [T21:765 peptide], for which the “Mean T2 binding ratio” value was 2.86 ratio to DMSO control.

Take LIIPSLERL (Synthetic peptide) [T21:656 peptide]: the “Mean T2 binding ratio” value is 0.921 ratio to DMSO control.

For SLERLVNAI (Synthetic peptide) [T21:660 peptide], the “Mean T2 binding ratio” value is 0.893 ratio to DMSO control.

Take VIAKFQNKL (Synthetic peptide) [T21:607 peptide]: the “Mean T2 binding ratio” value is 0.933 ratio to DMSO control.

The target of a further test is T1, HLA-A2.1 MHC class I on the surface of …. Description: T2 MHC class I stabilisation, flow cytometry with anti HLA-A2.1 mAb, peptide at 10 ug (printed '10 lg'), n = 3. The protocol:
as §1, §2
(In general: In flow cytometry, cells or beads pass a laser one at a time.)
Consider YLIHLLQEL (Synthetic peptide) [T21:765 peptide], for which the “Mean T2 binding ratio” value is 1.11 ratio to DMSO control.

As to LIIPSLERL (Synthetic peptide) [T21:656 peptide], the “Mean T2 binding ratio” value is 0.928 ratio to DMSO control.

As to SLERLVNAI (Synthetic peptide) [T21:660 peptide], the “Mean T2 binding ratio” value is 0.942 ratio to DMSO control.

In the case of VIAKFQNKL (Synthetic peptide) [T21:607 peptide], the “Mean T2 binding ratio” value was 0.967 ratio to DMSO control.

The target is the same in a further test. The test can be described thus: T2 MHC class I stabilisation, flow cytometry with anti HLA-A2.1 mAb, peptide at 1 ug (printed '1 lg'), n = 3. The protocol:
as §1, §2
Consider YLIHLLQEL (Synthetic peptide) [T21:765 peptide], for which the “Mean T2 binding ratio” value is 0.955 ratio to DMSO control.

On to LIIPSLERL (Synthetic peptide) [T21:656 peptide], for which the “Mean T2 binding ratio” value was 0.955 ratio to DMSO control.

Consider SLERLVNAI (Synthetic peptide) [T21:660 peptide], for which the “Mean T2 binding ratio” value is 0.918 ratio to DMSO control.

In the case of VIAKFQNKL (Synthetic peptide) [T21:607 peptide], the “Mean T2 binding ratio” value is 0.951 ratio to DMSO control.
